Reference: the domain aggregation screens of Martell et al. (2025)

Experiment: soluble fraction after stress (log2 fold change); higher = more stays soluble; pooled small domains, quantitative proteomics
Conditions: stress: 50 degC
Summary of the method: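 The stress applied to every library was 50°C. These custom libraries of small protein domains were pooled and measured at high throughput with quantitative proteomics as the read-out. Aggregation propensity is expressed as the base-two logarithm of the fold change in how much of each protein remains soluble. The higher the value, the more of that protein stays in solution.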

Sequence | soluble fraction (log2)
HMVDQVDKDRFLEALTQLGGSAGNVRLRETLQWEEEVYVIIKDALVKSGTILTGRGRGGSVLLASA | -1.12
HMGSSLLSPKEREVLQLLAGNLSNKQIALAMGVSDETIKWHLRNLFGKLNAGGRKHLIDRARMLGLLAAA | -0.6
HMVSGVMAQQAIAVLVQQEDKHAPLSDQALAERLQVQGIDISRRTVAKYRQLLQIPSAATRR | -0.419
HMLGVLEYYNNGQKKSERTFKGGMQIYTEWYENGQMKAEERKWIDQLGSLKFLNLLSTEWDENGNEISRME | -1.34
HMIGAKVLVNGQLHRDSYGEGPGQTESNATRLVNYINMKGSHPYHVTTLDGGWRGWVTADSVQV | 0.223
HMNTIFSVNGPVVKVKDTKDFSMMEMVYVGEKKLIGEVIGITESFTTIQVYEVTTGLKVGEPVYTTGAPM | -0.38
HMHDAKAEIIRLSALLTEYQRSYYIDGHSQVSDLEYDRLFDRLVALETSHPELREADSPTQRV | -0.855
HMGGFNATTLQNIEELRRSLSDADQFGRHEVIETIGGSDSRAGKLLKKMLEAGIIEQVKGHGKGRYRFKRT | -0.0136
HMEEAQWEFKWENTDSAEIHGPHSSSEMLKWQENSFFAKGVYVRKVGGDTTDFTDGKRIDFDLY | -0.822
HMEILTLEELKRLMAKAKLKQNQISGHAGVSKQQISMILAGKRNITKDVSDNLKANLAEYFP | -0.462
HMTASKSTVSTPEKVVYHIVFPKETKYSIAKKYGITIEELEKRNPEIIPSLSVGQKLVIKGTAPK | -0.00327
HMRPEARAASLSDEERKIFDYLAANGEKTIDNISVAVKMSAADILKNITLMSAKGLVYMPSAGRYGVKGN | -0.00201
HMKVYPIMEAIANNNIELVKLLLEYHADLNIKDSNGNTPLALAKETGAKEVEDLLLQWMKQHT | -0.543
HMWPQIAGFADRFGLSDTERRIVTLMSHGRSRKIIASTLGYSQNTIRNYTRNIYAKAGVHSKQELLDLLDP | -2.13
HMAQASEPMLALIRLKWWEEQINSPVKGDSLPLLSQLNSHISAGYLSRSQVTSLIQRWQDYA | -0.787
HMELSVTDRTRQIRHILKEKGRVEFTSLFEELTKPYVIVTFLSVLEMSKNNELMITQDKTFGSITLEMKG | -0.569
HMIDMQIDTARFGTLGVDDDKIITFPKGLPGFEDERRFFLMDHSGSSKIKWLHSADNPGLALV | -0.0658
HMSRTLLVYVTGAVRQPGVYELPEGSRFFDAVKAAGDVLPYAVMEDINMAEPLSDGMKIHIPLDPEQ | -0.125
HMGSLKISNPVKDTLWIQGVDGLKSIEIYSSTGQLVKTILGNQGDVSSLPKGVYFLKINTPSESLTAKIIK | -0.0698
HMNKELVVPDLTDMRVKDAEFEAHQVGMRTEIVDSVYVRRLKRGYVYKQNPVPGSKVKKGRRIALTINAV | 0.202
HMNTGTTISYSDFRDRVASGTVKEVQISDDRITGVLKNDETFNTVPVGNDSGLTKLLDDNGVTYSGTP | 0.174
HMKTPETSEYVVQAGDSLRRILTERYGAKEQDLPYLYRQFRLLNPKVSSLDNIHAGTKVRIPLVASVL | 0.132
HMVAQQINDFRSERDASTGTLKRPLFDTLRDVISSRAQAYVSATGKPVTVEDLDRIYQAVEAEAKQAL | 0.0781

Sequence | soluble fraction (log2)
HMTESIHVGSKVTINNNAKRWATGQNIYSGVKGKTYTVIQMNGSRLLLDKVISWINKGDVHLPGS | -1.64
HMSLEEQNGAKDRQVEAYELLLKAQRALDQEDTAGFQAAMKDLEPLSSQLDAQGQTLYHELLPFVS | -0.0812
HMFTYEETIGKSADVYLTIPALKAGKGKIIISVRGSVHELDAMTNNAEKISTGAVVKIVRIEHGNILLVEN | -1.63
HMTATKDLPFSTFITEVEKGNITSVDIKGNQIEGTFSNGAKFKTYSPNYPNLVERLADKGVAISAGPS | 0.047
HMEDSSSILNRMRKLIALLNRASEAYYKENKEIISNFEYDRLYDELLGLESRSNTVLSGSPTYKV | -1.63
HMKSVILQLHPETLRWIREEAQADMADASVIQLLNDWELGTKKPTLSQVQKLSHETHIPFGYFFLKEKPA | -0.45
HMDIFLPDVKGYDLIPSFRRHLPDIDVIAMTGYNTRALESAVRQQDVLFYMIKPFEASQLKEILEHLVK | -0.221
HMVNSADLAAKPFIDLLVSTRQQLREAKQYDLADTIRDELTNHGITIEDKPQGSEWQYEFNPNS | 0.112
HMIISMKKTATKEQIAHVRELIEGMGYKAHMSVGAERVIFGAIGDERGKERLVSLEAQPGVEKVIPIL | 0.255
HMTGIKISVDRLQIGNYVKLPLNWKDHPFLFSSFAIKSQEEIDLIRRLGLKQVIMFPDKSSMPPKPV | -1.33
HMPIKYTHKGYTINVSRSKMNGTTFVKVVDPKGQVIQQSQDNRIQDVNQLVTTMKQYIDTLKPS | 0.189
HMAADRRKAERPLIDGQAVMDRFEVGPGPMVGKALKFLLALKRAEPDLDLAGTEERLDAWWNEQL | 0.262
HMVPEETKQFINQLNHGSLSIRMNAANNLEKLGLLAIPEIEAALPKAHGEAAFRLPRLLHALVLRETEYF | -0.00885
HMGIAKLLTEQEYKIALLAAERRTNAMIAEEMNLTENTVKTHLKHIFDKVGIAGNAKNKRHLLADMMNSER | -0.277
HMTRNGTVTFFNHDKGYGFIKDVLTQESVFVHINSLSEPINEQNKVSFEIEMGPRGSNAINVKLI | -1.97
HMNKEKLLEMFESMSIIIVQSLEEKEQTEDRIETELFNEAKTPRYSTLTKQDIQSVIRNILITVGV | -1.84
HMVERLVVSPGAGVFAPNKAIANGTRISVGDVLGMVGEQEVRSLFDGVLQSFISVDGERLTAHQPVAWLRT | -0.536
HMTGQEGLIGAHGVALTRLSNEEGEVKVQGEIWQARSDQEVAKGASIEVVHVDGLVLTVRPQH | -0.0984
HMRGLLSQREHDVLDLVARGFSYGEIARLRSISVSTVQTHIKNLYRKLAVSSRTEAVYEAKQMGI | -1.59
HMLGDAVLRQVLETIPEDPAVDYLELRRNTGMTEADLDRVLADLENLGVINKKRTVEQVLYWRT | -0.294
HMQARSQQTIQTLFKAAAQILDKEGEAGLSTNKVAAAAGFSIGTLYQYFPSKEVLIQAMAAR | -0.0788
HMLDLPVRTINGRQYYYYEVRNRETVYGLSKRLGVTREEIVRYNPSMADGLKRGAILYFPVDEFSDRI | -0.281
HMLLTASNYFKETKGINFSELPEALQKGHSFVIKSTENGTNWNAYSTSQNIQRVIDAYFSKLDEYLEKNQ | -0.611

Sequence | soluble fraction (log2)
HMFQPFFENLRKASIPVSLREYLTFLEGMKKGLVTYDIEAFYFLARAAMVKDERNIDKFDRAFSATFKG | -0.287
HMKLKHANGNHPLTQQEKQNMIEEAAKHYGDYMTALGFDWKQDPNSSDTPMRVAKAFVNDLAEGVY | 0.0454
HMVTTLLIINVAGKVKNPGVYQLPPGSRVVDALEAAGQQLKGVDISDINLARVLVDGEQILIGSN | -1.86
HMDKSRPVLRVGDSGDWVSKLQTALLEFGYRVAVDGVFGEHTKSAVVHFQNGRRLIADGVVGNLTWDALL | -2.31
HMAEQEELDAIRPDLDGQEIMDILGIKPGREVGAARNFLLELRLDEGPLGYDEAVSRLLTWWAERT | -0.13
HMDIPGITAVKPQAAFYMFPKIDVKKFNIVNDEKFALDLLQDKKILIVQGSGFNWKQPDHFRVV | -0.103
HMYLHSEFSPVTGQELHMKYDDSSTEEDPVMLVEGKDIQGNDFVKKIHLNDVDPENATPAEMTALRVHL | -0.541
HMEQIPEEYKKIYSLITDIPININDIAKKSLLELREVSSKLTMLELDGKVVKLPGNMYIRGDL | 0.0726
HMPTGRVVIPLNRLTASDVARILDEAYGRDHNFEVVKPSRLAKGIIVIGPKSEIDGIKELLAH | -0.535
HMLAVPADFAEKLQSLRSQLASDDLDASDAFGRLQPFIKALYPAQLEALRKAVDDFDFVEATRLIDQLPQ | -0.232
HMNVEATAETLLALLKKNGGSLPFGDKSDPEAIQSQLKMSKKTFKKAAGTLFKKKLVRIEDHGIFL | -0.657
HMKINKQHLAFQIFGIRAKLGLSMEQFGELLGANKSSVSGWERGTVVPSSQRLKKIAELGKISLAELLTP | -1.23
HMSVGDLLENLIRETRAQFSAPPESLGVAEKRRFVALLSQKGGFLLKGAVSRAASVLGVSEQTVYRYLKDS | -0.218
HMLRQRVFRIIQNNINSKNYFVYTKQILAELAGISMRSLNRTLSELQNDRLIIVDSGTIRLFT | -1.49
HMQQDGSSSLGENMLNQELQARGVVPSEIPQEVWERVIQEAGKKSKREIYADIGLGRSLAAGFAQRLAA | 0.261
HMLKHEEIQEYIKEQINSGTWKPKAKLPSLRDMSELFSTSIGTVLTAYSALEKKHIIYSIPRSGYYVLG | -1.11
HMQESTILPAQKSAISSLATSAGFSSENLKRYLLQNYGVDLKDLTRSQGAEVIKAFQSGNVSKP | 0.0882
HMQILPAFLPENPELRARLANHSLEELTEILKQYKTLHNSTDVDTVKRAIRAIEIEEYYAVHPV | -0.777
HMLHVRSALMSELDGIEGIGEKRKRLLFDAFITRDAIAAATLEQLMAVKGMNRPSAEAVHKHFHG | -0.53
HMEDINAVLAENLRRLRESRRLSLDAVARLTGVSKSMLGQIERGEVNPTVSTMWKIAGGLKVNFTALFRRE | -1.47
HMISLPSYIREEATEVYNRLHDLGLEYTSLDVNDDSIPKGYVVRTVPEAGASVPAGQVVTVYVSLG | -0.446
HMIVLPGEELEVHIVQEGKEDGQGVAYLDDGTMVVVEGGRPYVDSFAYVAVTRVLQTGAGRIIFAHPTR | -0.832
HMEYSKSIKRLREDKNLTVEELAKRLSLDVEEIQKAEDGEDVDQKTLEAIARYFGVQYDSLVEGTAKSK | 0.0998
